The results in this text go back to patent publication EP3467119A1.

The target of this test is recombinant caspase-3 (E. coli KRX lysate, pTS1k:caspase-3(T/S)). The experiment in a line: cell-based or functional assay.

With HQ:CBS:HT (5x HQ tag:CBS:HaloTag), the INDUCED luminescence, HisLink purification fraction E1 came out at 2.95e+06; the INDUCED luminescence, HisLink purification fraction E2 was 4.09e+07; the INDUCED luminescence, HisLink purification fraction E3 came out at 3.29e+06; the INDUCED luminescence, HisLink purification fraction E4 was determined as 216000. In addition, the INDUCED luminescence, HisLink purification fraction E5 is 48100; the INDUCED luminescence, HisLink purification sample HSS turned out to be 1.29e+07; the INDUCED luminescence, HisLink purification sample NSM amounted to 5.82e+06; the INDUCED luminescence, HisLink purification sample WASH was 3.71e+06. Further, the INDUCED luminescence, purified HQ:CBS:HT immobilised on HaloLink plate is 662000; the RESPONSE, HisLink purification fraction E1 stood at 699 fold; the RESPONSE, HisLink purification fraction E2 is 212 fold; the RESPONSE, HisLink purification fraction E3 is 178 fold. In addition, the RESPONSE, HisLink purification fraction E4 amounted to 191 fold; the RESPONSE, HisLink purification fraction E5 worked out at 178 fold; the RESPONSE, HisLink purification sample HSS was 43 fold; the RESPONSE, HisLink purification sample NSM turned out to be 33 fold. Besides, the RESPONSE, HisLink purification sample WASH amounted to 479 fold and the RESPONSE, purified HQ:CBS:HT immobilised on HaloLink plate amounted to 96 fold.
